B1: TPR 5TU (parent)
chain: GGAUCUUCUCGAUCUAACAAAAAAGACAAAUCUGCCACAAAGCUUGAGAGCAUCUUCGGAUGCAGAGGCGGCAGCCUUCGGUGGCGCGAUAGCGCCAACGUUCUCAACUAUGACACGCAAAACGCGUGCUCCGUUGAAUGGAGUUUAUCAUG

Variants at the floor of the assay were thinned out.

The variants in this data set derive from B1. The data set can be described thus: polymerase ribozyme fitness, log enrichment relative to wild type (log ratio); higher = more active; in vitro selection for triplet polymerase activity. Summed up: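 The heterodimeric triplet polymerase ribozyme's subunits were each mutagenized into PCR-built libraries and transcribed. Every library was selected once, in triplicate, by annealing with a biotinylated primer, the partner subunit and triplets, incubating frozen at −7 °C, gel-excising extended constructs, capturing on streptavidin beads and running RT-PCR. Input and output libraries were Illumina-sequenced, with genotypes kept only at ≥10 input reads and ≥1 read per output. Fitness, from inverse-variance-weighted replicate averages, is the base-2 logarithm of genotype enrichment over wild-type enrichment.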
For GGAUCUUCUCGAUCUAACAAAAAAGACAAAUCUGCCACAAAGCUUGAGAGCAUCUUCGGAUGCAGAGGCGGCAGCCUUCGGUGGCUCGAUAGCGCCAACGUUCUCAACUAUGACACGCAAAACGCGUGCUCCGUUGAAUGGAGUUUAACAUG, the “polymerase ribozyme fitness (log ratio)” value was -3.6.
For GGAUCUUCUCGAUCUAACAAAAAAGACAAAUCUGCCACAAAGCUUGAGAGCAUCUUCGGAUGCAGAGGCGGCAGCCUUCGGUGGCGAGAUAGCGCCAACGUUCUCAACUAUGACACGCAAAACGCGUGCUCCGUUGAAUGGAGUUUAUCGUG the value was at most -4.2; for GGAUCUUCUCGAUCUAACAAAAAAGACAAAUCUGCCACAAAGCUUGAGAGCAUCUUCGGAUGCAGAGGCGGCAGCCUUCGGUGGCUCGAGAGCGCCAUCGUUCUCAACUAUGACACGCAAAACGCGUGCUCCGUUGAAUGGACUUUAUCAUG, at most -4.2.
Under GGAUCUUCUCGAUCUAACAAAAAAGACAAAUCUGCCACAAAGCUUGAGAGCAUCUUCGGAUGCAGAGGCGGCAGCCUUCGGUGGCGAGAUAGCGCCAACGUUCUCUACUAUGACACGCAAAACGCGUGCUCCGUUGAAUGGAGUUUAUCAUG stands -4.18.
Consider GGAUCUUCUCGAUCUAACAAAAAAGACAAAUCUGCCACAAAGCUUGAGAGCAUCUUCGGAUGCAGAGGCGGCAGCCUUCGGUGGCUCGAUAGCGCCAACGUUCACAACUAUGACACCCAAAACGCGUGCUCCGUUGAAUGGAGUUUAUCAUG, for which the “polymerase ribozyme fitness (log ratio)” value was -2.37.
Under GGAUCUUCUCGAUCUAACAAAAAAGACAAAUCUGCCACAAAGCUUGAGAGCAUCUUCGGAUGCAGAGGCGGCAGCCUUCGGUGGCGAGAUAGCGCCAACGUUCUCAACUAUGACACGCAAAACGCGUGCUCCGUUGAAUGGAGUUUGUCAUG stands at most -4.2; under GGAUCUUCUCGAUCUAACAAAAAAGACAAAUCUGCCACAAAGCUUGAGAGCAUCUUCGGAUGCAGAGGCGGCAGCCUUCGGUGGCGAGAUAGCGCCAACGUUCUCAACUAUGACACGCAAAACUCGUGCUCCGUUGAAUGGAGUUUAUCAUG, at most -4.2; under GGAUCUUCUCGAUCUAACAAAAAAGACAAAUCUGCCACAAAGCUUGAGAGCAUCUUCGGAUGCAGAGGCGGCAGCCUUCGGUGGCUCGAGAGCGCCAACGUUAUCAACUAUGACACGCCACACGCGUGCUCCGUUGACUGGAGUUUAUCAUG, at most -4.2.
As for GGAUCUUCUCGAUCUAACAAAAAAGACAAAUCUGCCACAAAGCUUGAGAGCAUCUUCGGAUGCAGAGGCGGCAGCCUUCGGUGGCGAGAUAGCGCCAACUUUCUCAACUAUGACACGCAAAACGCGUGCUCCGUUGAAUGGAGUUUAUCAUG, the “polymerase ribozyme fitness (log ratio)” value was at most -4.2.
Regarding GGAUCUUCUCGAUCUAACAAAAAAGACAAAUCUGCCACAAAGCUUGAGAGCAUCUUCGGAUGCAGAGGCGGCAGCCUUCGGUGGCGAAAUAGCGCCAACGUUCUCAACUAUGACACACGAAACGCGUGCUCCGUUGAAUGGAGUUUAUCAUG, the “polymerase ribozyme fitness (log ratio)” value was at most -4.2.
For GGAUCUUCUCGAUCUAACAAAAAAGACAAAUCUGCCACAAAGCUUGAGAGCAUCUUCGGAUGCAGAGGCGGCAGCCUUCGGUGGCUCGAUAGCGCCAACUUUCUCAACUAUGACACGCAAAACGCGUGCUCCGUUGAAUGGAGUUUAUCAUG the value was at most -4.2.
For GGAUCUUCUCGAUCUAACAAAAAAGACAAAUCUGCCACAAAGCUUGAGAGCAUCUUCGGAUGCAGAGGCGGCAGCCUUCGGUGGCGAGAUAGCGCCAACGUUCUCAACUAUGACACGCAAAAAGCGUGCUCCGUUGAAUGGAGUUUAUCUUG the value was -3.19.
Under GGAUCUUCUCGAUCUAACAAAAAAGACAAAUCUGCCACAAAGCUUGAGAGCAUCUUCGGAUGCAGAGGCGGCAGCCUUCGGUGGCGAGAUAGCGCCAACGUUCUCAACUAUGACACGCAAAACGCGUGCUCCCUUGAAUGGAGUCCAUCAUG stands at most -4.2; under GGAUCUUCUCGAUCUAACAAAAAAGACAAAUCUGCCACAAAGCUUGAGAGCAUCUUCGGAUGCAGAGGCGGCAGCCUUCGGUGGCGAGAUAGCGCCAACGUUCUCAACUAUGACACGCAAAACGCGUGCUCCGUUGAAUCGAGUUUAUCAUG, at most -4.2.
GGAUCUUCUCGAUCUAACAAAAAAGACAAAUCUGCCACAAAGCUUGAGAGCAUCUUCGGAUGCAGAGGCGGCAGCCUUCGGUGGCGAGAUAGGGCCAACGUUCUCAACUAUGAUACGCAAAACGCGUGCUCCGUUGAAUGCAGUUUAUCAUG: the “polymerase ribozyme fitness (log ratio)” value was at most -4.2.
Turning to GGAUCUUCUCGAUCUAACAAAAAAGACAAAUCUGCCACAAAGCUUGAGAGCAUCUUCGGAUGCAGAGGCGGCAGCCUUCGGUGGCGAGAUAGCGCCAACGUUCUCAACUAUGACACGCAAAACGCGUGCUCCGUUGACUGGAGUUUAUCAUG, the “polymerase ribozyme fitness (log ratio)” value is at most -4.2.
With GGAUCUUCUCGAUCUAACAAAAAAGACAAAUCUGCCACAAAGCUUGAGAGCAUCUUCGGAUGCAGAGGCGGCAGCCUUCGGUGGCUCGAUAGCGCCAACGUUCUCAACUAUGACACGCAAAACGCGUGCUCCGUUGAAUGAAGUUCAUCAUG, the “polymerase ribozyme fitness (log ratio)” value is -1.62.
For GGAUCUUCUCGAUCUAACAAAAAAGACAAAUCUGCCACAAAGCUUGAGAGCAUCUUCGGAUGCAGAGGCGGCAGCCUUCGGUGGCGAGAUGGCGCCAACGUUCUCAACUAUGACACGCAAAACGCGUGCUCCGUUGAAUGGAGUUUAUCAUG the value was at most -4.2; for GGAUCUUCUCGAUCUAACAAAAAAGACAAAUCUGCCACAAAGCUUGAGAGCAUCUUCGGAUGCAGAGGCGGCAGCCUUCGGUGGCGAGAUAGCGCUAAGGUUCUCAACUACGACACGCAAAACGAGUGCUCCGUUGAAUGGAGUUUAUCAUG, at most -4.2.

These data come from the RNAGym collection of RNA variant scans (doi:10.1073/pnas.2313332121).
